In patent EP4729546A1 (Jiangsu BioJeTay Biotechnology Co., Ltd., dated 2026):

Assays:
[1] = molecular target: huFXII-his (human) (UniProt P00748); assay: ELISA, huFXII-his coated at 1 µg/ml, HRP anti-human secondary, OD450
[2] = molecular target: huFXII-his (human) (UniProt P00748); assay: cell-based or functional assay

Chain of huFXII-his (human) (P00748 20-615, form in doubt): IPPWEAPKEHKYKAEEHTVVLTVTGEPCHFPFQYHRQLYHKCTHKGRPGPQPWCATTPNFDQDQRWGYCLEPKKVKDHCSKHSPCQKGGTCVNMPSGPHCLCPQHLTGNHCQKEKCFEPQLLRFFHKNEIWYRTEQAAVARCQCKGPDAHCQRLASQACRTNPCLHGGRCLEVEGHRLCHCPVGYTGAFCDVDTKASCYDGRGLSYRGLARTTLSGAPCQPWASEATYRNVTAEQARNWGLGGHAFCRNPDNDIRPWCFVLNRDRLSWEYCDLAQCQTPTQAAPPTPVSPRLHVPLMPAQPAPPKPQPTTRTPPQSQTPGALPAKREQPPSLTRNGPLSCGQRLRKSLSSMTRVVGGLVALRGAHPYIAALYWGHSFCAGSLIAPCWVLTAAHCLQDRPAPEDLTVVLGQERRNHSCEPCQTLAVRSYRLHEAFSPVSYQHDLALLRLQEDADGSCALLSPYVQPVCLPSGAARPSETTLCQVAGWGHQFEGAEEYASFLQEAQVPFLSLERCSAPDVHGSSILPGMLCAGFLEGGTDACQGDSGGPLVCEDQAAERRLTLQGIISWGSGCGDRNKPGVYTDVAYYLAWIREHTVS

| EC50 [1] | IC50 of inhibition of cleavage of chemical substrate S2302 by FXIIa (OD405) [2] | Binder |
| --- | --- | --- |
| 0.164 µg/mL | 0.0178 µg/mL | FX-Y17-Y2 (antibody, V domains shown) VH: EVQLLESGGGLVQPGGSLRLSCAGSGFSFGSQTMSWVRQAPGKGLEWVSSISHISGRTYYADSVKGRFTISRDNSKNTLYLQMNSLRAEDTAVYYCTKSHAFDVWGQGTMVTVSS VL: EIVLTQSPATLSVSPGERATLSCRASQSVYSALAWYQQKPGQAPRLLIYGASTRATGIPARFSGSGSGTEFTLTISSLQSEDFAVYYCQQNNKWPLSFGGGTKVEIK |
| 0.125 µg/mL | 0.021 µg/mL | FX-Y17-Y16 (antibody, V domains shown) VH: EVQLLESGGGLVQPGGSLRLSCAGSGFSFGSQTMSWVRQAPGKGLEWVSSISVISGRSYYADSVKGRFTISRDNSKNTLYLQMNSLRAEDTAVYYCAKSHAFDVWGQGTMVTVSS VL: EIVLTQSPATLSVSPGERATLSCRASQSVYSALAWYQQKPGQAPRLLIYGASTRATGIPARFSGSGSGTEFTLTISSLQSEDFAVYYCQQYHKWPLSFGGGTKVEIK |
| 0.131 µg/mL | 0.0202 µg/mL | FX-Y17-Y15 (antibody, V domains shown) VH: EVQLLESGGGLVQPGGSLRLSCAGSGFSFGSQTMSWVRQAPGKGLEWVSSISVISGRPYYADSVKGRFTISRDNSKNTLYLQMNSLRAEDTAVYYCTKSHAFDVWGQGTMVTVSS VL: EIVLTQSPATLSVSPGERATLSCRASQSVYSALAWYQQKPGQAPRLLIYGASTRATGIPARFSGSGSGTEFTLTISSLQSEDFAVYYCQQYHKWPLSFGGGTKVEIK |
| 0.083 µg/mL | 0.0127 µg/mL | FX-Y17-Y30 (antibody, V domains shown) VH: EVQLLESGGGLVQPGGSLRLSCAGSGFSFGSQTMSWVRQAPGKGLEWVSSISVISGRTYYADSVKGRFTISRDNSKNTLYLQMNSLRAEDTAVYYCAKSHAFDVWGQGTMVTVSS VL: EIVLTQSPATLSVSPGERATLSCRASQSVFSNLAWYQQKPGQAPRLLIYGASTRATGIPARFSGSGSGTEFTLTISSLQSEDFAVYYCQQYHWWPLSFGGGTKVEIK |
| 0.167 µg/mL | 0.0254 µg/mL | FX-Y17-Y5 (antibody, V domains shown) VH: EVQLLESGGGLVQPGGSLRLSCAGSGFSFGSQTMSWVRQAPGKGLEWVSSISVISGRYYYADSVKGRFTISRDNSKNTLYLQMNSLRAEDTAVYYCTKSHAFDVWGQGTMVTVSS VL: EIVLTQSPATLSVSPGERATLSCRASQSVYSALAWYQQKPGQAPRLLIYGASTRATGIPARFSGSGSGTEFTLTISSLQSEDFAVYYCQQYHKWPLSFGGGTKVEIK |
| 0.136 µg/mL | 0.02 µg/mL | FX-Y17-Y7 (antibody, V domains shown) VH: EVQLLESGGGLVQPGGSLRLSCAGSGFSFGSQTMSWVRQAPGKGLEWVSSISVISGRAYYADSVKGRFTISRDNSKNTLYLQMNSLRAEDTAVYYCTKSHAFDVWGQGTMVTVSS VL: EIVLTQSPATLSVSPGERATLSCRASQSVYSALAWYQQKPGQAPRLLIYGASTRATGIPARFSGSGSGTEFTLTISSLQSEDFAVYYCQQYHKWPLSFGGGTKVEIK |
| 0.128 µg/mL | 0.0259 µg/mL | FX-Y17-Y13 (antibody, V domains shown) VH: EVQLLESGGGLVQPGGSLRLSCAGSGFSFGSQTMSWVRQAPGKGLEWVSSISVISRRTYYADSVKGRFTISRDNSKNTLYLQMNSLRAEDTAVYYCTRSHAFDVWGQGTMVTVSS VL: EIVLTQSPATLSVSPGERATLSCRASQSVYSNLAWYQQKPGQAPRLLIYGASTRATGIPARFSGSGSGTEFTLTISSLQSEDFAVYYCQQYHKWPLSFGGGTKVEIK |
| 0.0629 µg/mL | 0.0143 µg/mL | FX-Y17-Y37 (antibody, V domains shown) VH: EVQLLESGGGLVQPGGSLRLSCAGSGFSFGSQTMSWVRQAPGKGLEWVSSISVISGRSYYADSVKGRFTISRDNSKNTLYLQMNSLRAEDTAVYYCTKSHAFDVWGQGTMVTVSS VL: EIVLTQSPATLSVSPGERATLSCRASQSVWSNLAWYQQKPGQAPRLLIYGASTRATGIPARFSGSGSGTEFTLTISSLQSEDFAVYYCQQYHKWPLSFGGGTKVEIK |
| 0.169 µg/mL | 0.0199 µg/mL | FX-Y17-Y17 (antibody, V domains shown) VH: EVQLLESGGGLVQPGGSLRLSCAGSGFSFGSQTMSWVRQAPGKGLEWVSSISYISGRTYYADSVKGRFTISRDNSKNTLYLQMNSLRAEDTAVYYCTKGHAFDVWGQGTMVTVSS VL: EIVLTQSPATLSVSPGERATLSCRASQSVWSNLAWYQQKPGQAPRLLIYGASTRATGIPARFSGSGSGTEFTLTISSLQSEDFAVYYCQQYHKWPLSFGGGTKVEIK |
| 0.161 µg/mL | 0.028 µg/mL | FX-Y17-Y10 (antibody, V domains shown) VH: EVQLLESGGGLVQPGGSLRLSCAGSGFSFGSQTMSWVRQAPGKGLEWVSSISVISGRAYYADSVKGRFTISRDNSKNTLYLQMNSLRAEDTAVYYCTKAHAFDVWGQGTMVTVSS VL: EIVLTQSPATLSVSPGERATLSCRASQSVYSALAWYQQKPGQAPRLLIYGASTRATGIPARFSGSGSGTEFTLTISSLQSEDFAVYYCQQYHKWPLSFGGGTKVEIK |
| 0.149 µg/mL | 0.0214 µg/mL | FX-Y17-Y19 (antibody, V domains shown) VH: EVQLLESGGGLVQPGGSLRLSCAGSGFSFGSQTMSWVRQAPGKGLEWVSSISVISKRTYYADSVKGRFTISRDNSKNTLYLQMNSLRAEDTAVYYCTRSHAFDVWGQGTMVTVSS VL: EIVLTQSPATLSVSPGERATLSCRASQSVYSALAWYQQKPGQAPRLLIYGASTRATGIPARFSGSGSGTEFTLTISSLQSEDFAVYYCQQYHKWPLSFGGGTKVEIK |
| 0.364 µg/mL | 0.0296 µg/mL | FX-Y17-Y12 (antibody, V domains shown) VH: EVQLLESGGGLVQPGGSLRLSCAGSGFSFGSQTMSWVRQAPGKGLEWVSSISVISGRTYYADSVKGRFTISRDNSKNTLYLQMNSLRAEDTAVYYCTKWHAFDVWGQGTMVTVSS VL: EIVLTQSPATLSVSPGERATLSCRASQSLYSHLAWYQQKPGQAPRLLIYGASTRATGIPARFSGSGSGTEFTLTISSLQSEDFAVYYCQQYKKWPLSFGGGTKVEIK |
| 0.14 µg/mL | 0.0138 µg/mL | FX-Y17-Y14 (antibody, V domains shown) VH: EVQLLESGGGLVQPGGSLRLSCAGSGFSFGSQTMSWVRQAPGKGLEWVSSISHISGRTYYADSVKGRFTISRDNSKNTLYLQMNSLRAEDTAVYYCTKSHRFDVWGQGTMVTVSS VL: EIVLTQSPATLSVSPGERATLSCRASQSVYSALAWYQQKPGQAPRLLIYGASTRATGIPARFSGSGSGTEFTLTISSLQSEDFAVYYCQQNNKWPLSFGGGTKVEIK |
| 0.237 µg/mL | 0.0196 µg/mL | FX-Y17-Y8 (antibody, V domains shown) VH: EVQLLESGGGLVQPGGSLRLSCAGSGFSFGSQTMSWVRQAPGKGLEWVSSISVISRRTYYADSVKGRFTISRDNSKNTLYLQMNSLRAEDTAVYYCTKSHAFDVWGQGTMVTVSS VL: EIVLTQSPATLSVSPGERATLSCRASQSVWSNLAWYQQKPGQAPRLLIYGASTRATGIPARFSGSGSGTEFTLTISSLQSEDFAVYYCQQYHKWPLSFGGGTKVEIK |
| 0.228 µg/mL | 0.0244 µg/mL | FX-Y17-Y9 (antibody, V domains shown) VH: EVQLLESGGGLVQPGGSLRLSCAGSGFSFGSQTMSWVRQAPGKGLEWVSSISVISGRKYYADSVKGRFTISRDNSKNTLYLQMNSLRAEDTAVYYCAKSHAFDVWGQGTMVTVSS VL: EIVLTQSPATLSVSPGERATLSCRASQSVYSALAWYQQKPGQAPRLLIYGASTRATGIPARFSGSGSGTEFTLTISSLQSEDFAVYYCQQYHKWPLSFGGGTKVEIK |
| 0.257 µg/mL | 0.0321 µg/mL | FX-Y17-Y46 (antibody, V domains shown) VH: EVQLLESGGGLVQPGGSLRLSCAGSGFSFGSQTMSWVRQAPGKGLEWVSSISYISGRTYYADSVKGRFTISRDNSKNTLYLQMNSLRAEDTAVYYCTKGHAFDVWGQGTMVTVSS VL: EIVLTQSPATLSVSPGERATLSCRASQSVWSNLAWYQQKPGQAPRLLIYGASTRATGIPARFSGSGSGTEFTLTISSLQSEDFAVYYCQQYQKWPLSFGGGTKVEIK |
| 0.172 µg/mL | 0.0242 µg/mL | FX-Y17-Y18 (antibody, V domains shown) VH: EVQLLESGGGLVQPGGSLRLSCAGSGFSFGSQTMSWVRQAPGKGLEWVSSISVISGRSYYADSVKGRFTISRDNSKNTLYLQMNSLRAEDTAVYYCTKHHAFDVWGQGTMVTVSS VL: EIVLTQSPATLSVSPGERATLSCRASQSVWSNLAWYQQKPGQAPRLLIYGASTRATGIPARFSGSGSGTEFTLTISSLQSEDFAVYYCQQYHKWPLSFGGGTKVEIK |
| 0.216 µg/mL | 0.0154 µg/mL | FX-Y17-Y3 (antibody, V domains shown) VH: EVQLLESGGGLVQPGGSLRLSCAGSGFSFGSQTMSWVRQAPGKGLEWVSSISYISGRTYYADSVKGRFTISRDNSKNTLYLQMNSLRAEDTAVYYCTKSHAFDVWGQGTMVTVSS VL: EIVLTQSPATLSVSPGERATLSCRASQSVWSNLAWYQQKPGQAPRLLIYGASTRATGIPARFSGSGSGTEFTLTISSLQSEDFAVYYCQQYHKWPLSFGGGTKVEIK |
| 0.117 µg/mL | 0.0156 µg/mL | FX-Y17-Y31 (antibody, V domains shown) VH: EVQLLESGGGLVQPGGSLRLSCAGSGFSFGSQTMSWVRQAPGKGLEWVSSISVISGRNYYADSVKGRFTISRDNSKNTLYLQMNSLRAEDTAVYYCAKSHAFDVWGQGTMVTVSS VL: EIVLTQSPATLSVSPGERATLSCRASQSVWSNLAWYQQKPGQAPRLLIYGASTRATGIPARFSGSGSGTEFTLTISSLQSEDFAVYYCQQYHKWPLSFGGGTKVEIK |
| 0.0781 µg/mL | 0.0155 µg/mL | FX-Y17-Y40 (antibody, V domains shown) VH: EVQLLESGGGLVQPGGSLRLSCAGSGFSFGSQTMSWVRQAPGKGLEWVSSISVISGRTYYADSVKGRFTISRDNSKNTLYLQMNSLRAEDTAVYYCTKAHAFDVWGQGTMVTVSS VL: EIVLTQSPATLSVSPGERATLSCRASQSVWSNLAWYQQKPGQAPRLLIYGASTRATGIPARFSGSGSGTEFTLTISSLQSEDFAVYYCQQYHKWPLSFGGGTKVEIK |
